Measurements published in patent publication US20160222086.

Key:
[1] = system: T1, thrombin-activated 40 K-PEG-[O]-rFVIII
T1 sequence: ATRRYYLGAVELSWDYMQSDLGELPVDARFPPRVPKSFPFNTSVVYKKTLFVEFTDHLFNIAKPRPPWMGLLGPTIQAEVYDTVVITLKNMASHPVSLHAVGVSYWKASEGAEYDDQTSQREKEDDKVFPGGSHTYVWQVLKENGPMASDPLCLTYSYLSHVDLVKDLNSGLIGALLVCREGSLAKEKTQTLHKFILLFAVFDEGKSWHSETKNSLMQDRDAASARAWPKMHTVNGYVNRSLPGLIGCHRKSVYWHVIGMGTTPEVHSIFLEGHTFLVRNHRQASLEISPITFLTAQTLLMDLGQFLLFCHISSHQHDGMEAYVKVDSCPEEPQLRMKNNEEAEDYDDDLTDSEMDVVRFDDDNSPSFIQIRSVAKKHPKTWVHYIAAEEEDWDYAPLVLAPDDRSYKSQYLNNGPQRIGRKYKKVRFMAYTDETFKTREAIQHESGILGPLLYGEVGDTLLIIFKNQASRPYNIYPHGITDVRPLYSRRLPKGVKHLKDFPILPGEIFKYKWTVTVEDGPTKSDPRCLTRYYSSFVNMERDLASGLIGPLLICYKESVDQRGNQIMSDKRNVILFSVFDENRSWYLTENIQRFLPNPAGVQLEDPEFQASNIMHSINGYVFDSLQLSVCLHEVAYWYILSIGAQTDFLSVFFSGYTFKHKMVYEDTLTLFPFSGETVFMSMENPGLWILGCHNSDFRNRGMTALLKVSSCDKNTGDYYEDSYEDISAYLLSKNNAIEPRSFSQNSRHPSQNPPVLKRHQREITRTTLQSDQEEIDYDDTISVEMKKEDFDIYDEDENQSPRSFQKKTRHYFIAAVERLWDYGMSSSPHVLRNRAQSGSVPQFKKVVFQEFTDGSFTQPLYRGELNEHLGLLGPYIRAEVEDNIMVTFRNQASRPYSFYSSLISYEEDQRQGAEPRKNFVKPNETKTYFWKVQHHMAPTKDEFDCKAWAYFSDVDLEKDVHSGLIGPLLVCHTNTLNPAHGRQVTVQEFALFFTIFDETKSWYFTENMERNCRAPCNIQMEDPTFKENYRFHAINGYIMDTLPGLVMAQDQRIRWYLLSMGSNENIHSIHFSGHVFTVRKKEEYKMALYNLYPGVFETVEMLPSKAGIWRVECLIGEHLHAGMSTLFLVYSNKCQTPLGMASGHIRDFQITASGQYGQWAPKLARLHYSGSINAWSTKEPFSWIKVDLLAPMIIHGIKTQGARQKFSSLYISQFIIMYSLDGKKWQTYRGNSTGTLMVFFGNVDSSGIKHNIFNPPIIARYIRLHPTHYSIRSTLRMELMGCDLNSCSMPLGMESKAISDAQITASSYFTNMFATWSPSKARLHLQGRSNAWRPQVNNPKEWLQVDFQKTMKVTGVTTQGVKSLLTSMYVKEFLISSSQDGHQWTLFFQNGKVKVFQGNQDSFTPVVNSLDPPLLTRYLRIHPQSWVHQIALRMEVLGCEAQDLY

[2] = system: T2, thrombin-activated 80 K-PEG-[O]-rFVIII
T2 sequence: T1 sequence

[3] = system: T3, thrombin-activated rFVIII (rFVIIIa), made from the recombinant B-domain truncated Factor VIII N8
T3 sequence: T1 sequence

Substance: FIXa
- K1/2FIXa [1]: 0.42 nM
- apparent Kd of rFVIIIa-FIXa interaction (K1/2FIXa) [1]: O-linked glycoPEGylation did not affect the apparent Kd of rFVIIIa-FIXa interaction (K1/2FIXa)
- K1/2FIXa [2]: 1.11 nM
- apparent Kd of rFVIIIa-FIXa interaction (K1/2FIXa) [2]: O-linked glycoPEGylation did not affect the apparent Kd of rFVIIIa-FIXa interaction (K1/2FIXa)
- K1/2FIXa [3]: 0.88 nM
